Experimental data from article PMC4615894.

Target: CENP-W (Xenopus (endogenous in egg extract))
Experiment: co-IP

Substance CENP-C (natural protein) has a percent co-depleted of 80%.
